According to article PMC9072662:

Molecular target: Tetrameric photosystem I from Chroococcidiopsis sp. TS-821 isolated with DDM (Chroococcidiopsis sp. TS-821 (endogenous in TS-821 thylakoids))

**Q.** Which stoichiometry N does the source give for “Tetrameric photosystem I from Chroococcidiopsis sp. TS-821 isolated with DDM (complex)” here?
**A.** Its stoichiometry N is 4.
